In assay [1] the target is human regulatory light chain (MYL2) (UniProt P10916). As to the kind of experiment: Coomassie SDS-PAGE gel-based light chain loading assay. The following applies: read off a plot.
For assay [2], the target named is human essential light chain (MYL3) (UniProt P08590). Described as above. The following applies: read off a plot.

“human β-cardiac myosin 2-hep heavy chain, wild type D778V”: the results for the ratio to parent in assay [1] and in assay [2] were 1.3 and 1.1, respectively.

For the substance “human β-cardiac myosin 2-hep heavy chain, wild type L781P”, the values for the ratio to parent in assay [1] and in assay [2] were 1.2 and 0.99, respectively.

The values are drawn from article PMC9242648.
